Consider one molecule from publication PMC13562413, “FoxO transcription factors coordinate the urea cycle and gluconeogenesis by controlling Ass1”.

This series has as its target GST-FoxO1-DBD (Mus musculus, UniProt Q9R1E0 157-268). Description: EMSA; 10 mM HEPES pH 7.8, 50 mM KCl, 1 mM EDTA, 5 mM MgCl2, 10% glycerol, 5 mM DTT, 0.4 ug/mL poly(dI-dC), 30 min on ice; 4.6% PAGE in TBE. To be noted: protein: recombinant; tags: N-terminal GST (pGEX-4T1); label: 32P (alpha-32P dCTP, Klenow fill-in); blunt after fill-in of 5' overhangs.

Chain of GST-FoxO1-DBD (Q9R1E0 157-268): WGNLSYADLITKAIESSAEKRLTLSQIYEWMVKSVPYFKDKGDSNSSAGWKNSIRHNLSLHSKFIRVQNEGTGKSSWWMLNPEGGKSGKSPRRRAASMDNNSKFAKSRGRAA

B1: Ass1 FoxO BS1 mut (dsDNA)
DNA 1: GTGTACCCAAGGACACATCTACTTTCTTTCTGATTTTGGATCCTTTGTTGGGTG
DNA 2: CACCCAACAAAGGATCCAAAATCAGAAAGAAAGTAGATGTGTCCTTGGGTACAC
For the molecule B1, the binding result is reported as “no binding”.
